Test results taken from article PMC4498904, “Mutagenesis Study Reveals the Rim of Catalytic Entry Site of HDAC4 and -5 as the Major Binding Surface of SMRT Corepressor” (PLoS ONE, 2015).

Experiments:
[1] = molecular target: HA-HDAC4c, wild type, expressed in HEK293 cells (human, UniProt P56524 650-1055); experiment: cell-based or functional assay
[2] = molecular target: T1, KGN-SRD3c (N-terminal portion of Kusabira Green protein fused with SRD3c) (human, UniProt Q9Y618 1281-1504); experiment: split reporter (BiFC, NanoBiT); quantitative BiFC (Kusabira Green, Fluo-Chase kit): KGN-SRD3c and KGC-HDAC coexpressed in HEK293, 48 h; fluorescence of cell lysates by spectrophotometer (ex 494 nm, em 538 nm); conditions: partners not purified
T1 construct: human SMRT, SRD3c region, amino acid 1281 to 1504; The methods say that KGN-MC-SRD3c was made in the KGC-MC vector; also called KGN-MC-SRD3c; source: HEK293, transfected, in cells or lysate
T1 sequence (Q9Y618 1281-1504): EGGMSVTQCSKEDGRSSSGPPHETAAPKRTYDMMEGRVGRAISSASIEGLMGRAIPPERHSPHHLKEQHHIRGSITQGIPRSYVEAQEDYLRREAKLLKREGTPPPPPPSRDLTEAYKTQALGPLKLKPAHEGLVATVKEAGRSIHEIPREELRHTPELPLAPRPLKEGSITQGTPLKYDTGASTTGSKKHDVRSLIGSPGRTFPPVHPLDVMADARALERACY

Row | Binder | fold repression of a Gal4-tk-luciferase reporter by Gal4N-fused wild-type HDAC4c (50 and 100 ng plasmid) in HEK293 cells; endogenous SMRT-HDAC3 complex [1] | fold increase of the BiFC fluorescent signal over the KGC empty vector [2]
1 | Human HDAC3 (enzyme, UniProt O15379 1-428, looked up) MAKTVAYFYDPDVGNFHYGAGHPMKPHRLALTHSLVLHYGLYKKMIVFKPYQASQHDMCRFHSEDYIDFLQRVSPTNMQGFTKSLNAFNVGDDCPVFPGLFEFCSRYTGASLQGATQLNNKICDIAINWAGGLHHAKKFEASGFCYVNDIVIGILELLKYHPRVLYIDIDIHHGDGVQEAFYLTDRVMTVSFHKYGNYFFPGTGDMYEVGAESGRYYCLNVPLRDGIDDQSYKHLFQPVINQVVDFYQPTCIVLQCGADSLGCDRLGCFNLSIRGHGECVEYVKSFNIPLLVLGGGGYTVRNVARCWTYETSLLVEEAISEELPYSEYFEYFAPDFTLHPDVSTRIENQNSRQYLDQIRQTIFENLKMLNHAPSVQIHDVPADLLTYDRTDEADAEERGPEENYSRPEAPNEFYDGDHDNDKESDVEI | 7 fold | 
2 | KGC-HDAC4c (C-terminal portion of Kusabira Green protein fused with HDAC4c), wild type (domain or fragment, human, UniProt P56524 650-1055, looked up, also called KGC-MC-HDAC4c; source: HEK293, transfected, in cells or lysate) PRFTTGLVYDTLMLKHQCTCGSSSSHPEHAGRIQSIWSRLQETGLRGKCECIRGRKATLEELQTVHSEAHTLLYGTNPLNRQKLDSKKLLGSLASVFVRLPCGGVGVDSDTIWNEVHSAGAARLAVGCVVELVFKVATGELKNGFAVVRPPGHHAEESTPMGFCYFNSVAVAAKLLQQRLSVSKILIVDWDVHHGNGTQQAFYSDPSVLYMSLHRYDDGNFFPGSGAPDEVGTGPGVGFNVNMAFTGGLDPPMGDAEYLAAFRTVVMPIASEFAPDVVLVSSGFDAVEGHPTPLGGYNLSARCFGYLTKQLMGLAGGRIVLALEGGHDLTAICDASEACVSALLGNELDPLPEKVLQQRPNANAVRSMEKVMEIHSKYWRCLQRTTSTAGRSLIEAQTCENEEAET |  | ~2 fold
3 | KGC-HDAC5c (C-terminal portion of Kusabira Green protein fused with HDAC5c), wild type (domain or fragment, human, UniProt Q9UQL6 680-1087, looked up, human HDAC5 catalytic domain, amino acids 680 to 1087; also called KGC-MC-HDAC5c; source: HEK293, transfected, in cells or lysate) LFTTGVVYDTFMLKHQCMCGNTHVHPEHAGRIQSIWSRLQETGLLSKCERIRGRKATLDEIQTVHSEYHTLLYGTSPLNRQKLDSKKLLGPISQKMYAVLPCGGIGVDSDTVWNEMHSSSAVRMAVGCLLELAFKVAAGELKNGFAIIRPPGHHAEESTAMGFCFFNSVAITAKLLQQKLNVGKVLIVDWDIHHGNGTQQAFYNDPSVLYISLHRYDNGNFFPGSGAPEEVGGGPGVGYNVNVAWTGGVDPPIGDVEYLTAFRTVVMPIAHEFSPDVVLVSAGFDAVEGHLSPLGGYSVTARCFGHLTRQLMTLAGGRVVLALEGGHDLTAICDASEACVSALLSVELQPLDEAVLQQKPNINAVATLEKVIEIQSKHWSCVQKFAAGLGRSLREAQAGETEEAETVS |  | ~2 fold
